Reference: patent publication US10117916B2, “Peptides and combination of peptides for use in immunotherapy against CLL and other cancers” (immatics biotechnologies GmbH, priority 2015, dated 2018)

Target: HLA-A*02:01 (Homo sapiens, UniProt P04439, D140Y/D185E/D98H/E176V/E277Q/G131W/G231S/I119V/I121R/I166T/I218V/L300P/L318F/N151K/N90K/P208A/P217A/Q86G/Q94H/R138H/R169H/T345S)
Experiment: MHC binding assay: UV-ligand exchange with β2m ELISA (peptide exchange yield)
Settings: MHC class I binding score; binding to HLA-A*02:01 ranged by peptide exchange yield (UV-ligand exchange, β2m ELISA)
Excerpt: Candidate peptides for T cell based therapies according to the present invention were further tested for their MHC binding capacity (affinity). The individual peptide-MHC complexes were produced by UV-ligand exchange, where a UV-sensitive peptide is cleaved upon UV-irradiation, and exchanged with the peptide of interest as analyzed. Only peptide candidates that can effectively bind and stabilize the peptide-receptive MHC molecules prevent dissociation of the MHC complexes. To determine the yield of the exchange reaction, an ELISA was performed based on the detection of the light chain (β2m) of stabilized MHC complexes. The assay was performed as generally described in Rodenko et al. (Rodenko et al., 2006).
96 well MAXISorp plates (NUNC) were coated over night with 2 ug/ml streptavidin in PBS at room temperature, washed 4× and blocked for 1 h at 37° C. in 2% BSA containing blocking buffer. Refolded HLA-A*02:01/MLA-001 monomers served as standards, covering the range of 15-500 ng/ml. Peptide-MHC monomers of the UV-exchange reaction were diluted 100 fold in blocking buffer. Samples were incubated for 1 h at 37° C., washed four times, incubated with 2 ug/ml HRP conjugated anti-β2m for 1 h at 37° C., washed again and detected with TMB solution that is stopped with […]. Absorption was measured at 450 nm. Candidate peptides that show a high exchange yield (preferably higher than 50%, most preferred higher than 75%) are generally preferred for a generation and production of antibodies or fragments thereof, and/or T cell receptors or fragments thereof, as they show sufficient avidity to the MHC molecules and prevent dissociation of the MHC complexes.

Peptide Exchange, ″++″ (≥20% = ++):
105 (KLMNDIADI; listed as Homo sapiens) [compound 105]
123 (LLLAEAELLTL; listed as Homo sapiens) [compound 123]
136 (NLDKLWTLV; listed as Homo sapiens) [compound 136]
74 (GLLRASFLL; listed as Homo sapiens) [compound 74]
47 (FLSDQPEPYL; listed as Homo sapiens) [compound 47]

Peptide Exchange, ″++++″ (≥75% = ++++):
327 (VLIKWFPEV; listed as Homo sapiens) [compound 327]
36 (FILTHVDQL; listed as Homo sapiens) [compound 36]
199 (YLVELSSLL; listed as Homo sapiens) [compound 199]
195 (YLGGFALSV; listed as Homo sapiens) [compound 195]
285 (GVATAGCVNEV; listed as Homo sapiens) [compound 285]
134 (MLLEHGITLV; listed as Homo sapiens) [compound 134]
336 (YMAVTTQEV; listed as Homo sapiens) [compound 336]
186 (VMDPTKILI; listed as Homo sapiens) [compound 186]
384 (YMIGSEVGNYL; listed as Homo sapiens) [compound 384]

Peptide Exchange, ″+″ (≥10% = +):
135 (MTAGFSTIAGSV; listed as Homo sapiens) [compound 135]
130 (LLVLIPVYL; listed as Homo sapiens) [compound 130]
68 (GLDQQFAGLDL; listed as Homo sapiens) [compound 68]
304 (LAIVPVNTL; listed as Homo sapiens) [compound 304]

Peptide Exchange, ″+++″ (≥50 = +++):
53 (FLWQHVELVL; listed as Homo sapiens) [compound 53]
350 (ALEDRVWEL; listed as Homo sapiens) [compound 350]
243 (ILPTLEKELFL; listed as Homo sapiens) [compound 243]
267 (TLLDWQDSL; listed as Homo sapiens) [compound 267]
210 (KLLVQDFFL; listed as Homo sapiens) [compound 210]
156 (SLNIGDVQL; listed as Homo sapiens) [compound 156]
251 (LLYDNVPGA; listed as Homo sapiens) [compound 251]
370 (SIFASPESV; listed as Homo sapiens) [compound 370]
222 (ALWELSLKI; listed as Homo sapiens) [compound 222]
279 (YMAPEVVEA; listed as Homo sapiens) [compound 279]
349 (ALATHILSL; listed as Homo sapiens) [compound 349]
34 (YLPYIFPNI; listed as Homo sapiens) [compound 34]
125 (LLLEIGEVGKLFV; listed as Homo sapiens) [compound 125]
249 (LLPTGVFQV; listed as Homo sapiens) [compound 249]
369 (RLLDLENSLLGL; listed as Homo sapiens) [compound 369]
99 (ILIFHSVAL; listed as Homo sapiens) [compound 99]
286 (FLLEDLSQKL; listed as Homo sapiens) [compound 286]
14 (ALLRLLPGL; listed as Homo sapiens) [compound 14]
376 (VLYNQRVEEI; listed as Homo sapiens) [compound 376]
15 (ALPEVSVEA; listed as Homo sapiens) [compound 15]
167 (TLDTSKLYV; listed as Homo sapiens) [compound 167]
66 (SLAGGLDDMKA; listed as Homo sapiens) [compound 66]
71 (GLKHDIARV; listed as Homo sapiens) [compound 71]
79 (GLQAKIQEA; listed as Homo sapiens) [compound 79]
174 (VLAELPIIVV; listed as Homo sapiens) [compound 174]
120 (AIDAALTSV; listed as Homo sapiens) [compound 120]
59 (FVFGDENGTVSL; listed as Homo sapiens) [compound 59]
104 (KLILLDTPLFL; listed as Homo sapiens) [compound 104]
9 (ALCDTLITV; listed as Homo sapiens) [compound 9]
164 (SVHKGFAFV; listed as Homo sapiens) [compound 164]
110 (LLFDHLEPMEL; listed as Homo sapiens) [compound 110]
48 (FLSPQQPPLL; listed as Homo sapiens) [compound 48]
270 (TVLPVPPLSV; listed as Homo sapiens) [compound 270]
241 (ILGDILLKV; listed as Homo sapiens) [compound 241]
62 (GIIDGSPRL; listed as Homo sapiens) [compound 62]
311 (LLVDVEPKV; listed as Homo sapiens) [compound 311]
355 (FIWPMLIHI; listed as Homo sapiens) [compound 355]
175 (FTVPRVVAV; listed as Homo sapiens) [compound 175]
235 (GLDDLLLFL; listed as Homo sapiens) [compound 235]
111 (KLWNVAAPLYL; listed as Homo sapiens) [compound 111]
297 (FLVEPQEDTRL; listed as Homo sapiens) [compound 297]
302 (ILQDLTFVHL; listed as Homo sapiens) [compound 302]
181 (VLLSIPFVSV; listed as Homo sapiens) [compound 181]
268 (TLLQVFHLL; listed as Homo sapiens) [compound 268]
371 (SLADDSVLERL; listed as Homo sapiens) [compound 371]
177 (VLDDRELLL; listed as Homo sapiens) [compound 177]
252 (NLLDPGSSYLL; listed as Homo sapiens) [compound 252]
203 (ALLSSQLAL; listed as Homo sapiens) [compound 203]
321 (RLLEFELAQL; listed as Homo sapiens) [compound 321]
151 (SLFDSAYGA; listed as Homo sapiens) [compound 151]
211 (LIDVKPLGV; listed as Homo sapiens) [compound 211]
189 (VMLEMTPEL; listed as Homo sapiens) [compound 189]
191 (YIFDGSDGGV; listed as Homo sapiens) [compound 191]
